Consider one protein from paper doi:10.1101/2022.07.20.500776v2.

Substrate in this data set: O=[N+]([O-])c1ccc(OP(=O)(O)O)cc1
Briefly: purified protein. Conditions: pH 8.0, 100 mM Tris-HCl, 1 mM MgCl2, 10 °C, no added NaCl.

B1: Vibrio alkaline phosphatase (VAP) (Vibrio sp. G15-21) (protein)
chain: AEIKNVILMIGDGMGPQQVGLLETYANQAPNSIYKGNKTAIYQLAQEGVIGSSLTHPEDAIVVDSACSATMLATGIYSSSEVIGIDSQGNHVETVLEKAKKAGKATGLVSDTRLTHATPASFAAHQPHRSLENQIASDMLATGADVMLSGGLRHWIPKSTNDKGETYKQLEKLTQGDVYLKSKRKDDRNLLTEAEKDGYQLAFNRNMLDDAKGDKLLGLFAYSGMDDGIAYSNKKKSGERTQPSLKEMTQKALNILSKDEDGFFLMVEGGQIDWAGHSNDAGTMLHELLKFDEAIQTVYEWAKDREDTIVIVTADHETGSFGFSYSSNDLPKPQKRSGEAFADRDYAPNFNFGAFDILDGLYNQKQSYYGMISEFQKLDKSLQTPEKLAEIVNKNSEFPITAEQAKNVLASKPNPYRLAQHKYLSAEEVPAINDFDAFFPYNDRGNLLAREQATGQNIVWGTGTHTHTPVNVFAWGPAEKILPVSKIMHHSELGEYIKQQVN
Take B1: the Michaelis constant (Km) – broadly, the substrate concentration at which the rate is half of its maximum – worked out at 7.6 ± 1.8 µM; the kcat (in general, the number of substrate molecules converted per active site and unit of time at saturation) stood at 231 ± 15 s⁻¹.
